Laboratory results from patent US20240117030A1 (Pfizer, published 2024).

Target: T1, human TSLP (long form) (human, UniProt Q969D9 29-159, Biotinylated on the Avi tag in some assays; glycosylated (Expi293F expression))
T1 construct: biotinylated in some assays; also called lfhTSLP; hTSLP
Assay: bridging sandwich ELISA: human TSLP coated, Tri-Fab-Fc titrated, IL-13-FLAG added, detected with HRP anti-FLAG (OD450nm)
Procedure: For this method, 25 μL/well of 1 μg/mL recombinant human TSLP (in PBS pH7.2) was coated onto a 384-well clear flat bottom Maxisorp plates (NUNC) overnight at 4° C. and blocked with PBS without Mg²⁺ and Ca²⁺ with 3% BSA. Serially diluted Tri-Fab-Fc variants were added to the plates and incubated for 1 hour at room temperature (RT). After washing away the unbound Tri-Fab-Fc by washing with buffer (PBS without Mg²⁺ and Ca²⁺ with 0.05% tween 20), 25 μL/well of 100 ng/mL IL-13-FLAG (Pfizer Inc) was added to the plates and incubated at RT for one hour. The Tri-Fab-Fc bound to both TSLP and IL-13 was detected by HRP conjugated anti-FLAG secondary antibody (Sigma, Cat #A8592).

Row | Binder | EC50 (read off the curve) [nM]
1 | IL413TSLP-0008 (trispecific antibody, human IgG1, kappa, lambda) heavy: EVQLVESGGGLVQPGGSLRLSCAASGFTFSSYAMSWVRQAPGKGLEWVASISSGDTTYYPDSVKGRFTISRDNAKNSLYLQMNSLRAEDTAVYYCARNEGYYFGLTLWGQGTLVTVSSASTKGPSVFPKAPSSKSTSGGTAALGCLVKDYFPEPVTVSWNSGALTSGVHTFPAVLQSSGLYSLSSSVTVPSSSLGTQTYICNVNHKPSNTKVDKKVEPKSCDKTHTCPPCPAPEAAGAPSVFLFPPKPKDTLMISRTPEVTCVVVDVSHEDPEVKFNWYVDGVEVHNAKTKPREEQYNSTYRVVSVLTVLHQDWLNGKEYKCKVSNKALPAPIEKTISKAKGQPREPQVCTLPPSREEMTKNQVSLWCLVKGFYPSDIAVEWESNGQPENNYKTTPPVLDSDGSFFLYSKLTVDKSRWQQGNVFSCSVMHEALHNHYTQKSLSLSPGK chain 1: SYVLTQPPSVSVAPGQTARITCGGNNLGSKSVHWYQQKPGQAPVLVVYDDSDRPSWIPERFSGSNSGNTATLTISRGEAGDEADYYCQVWDSSSDHVVFGGGTKLTVLASTKGPSVFPLAPSSKSTSGGTAALGCLVKDYFPEPVTVSWNSGALTSGVHTFPAVLQSSGLYSLSSVVTVPSSSLGTQTYICNVNHKPSNTKVDKKVEPKSCGGGGSEVTLRESGPALVKPTQTLTLTCTFSGFSLSNFGEGLSWIRQPPGKGLEWLAHIYWDDDKRYNPSLKSRLTISKDTSRNQVVLTMTNMDPVDTATYYCARRETVFYWYFDVWGQGTTVTVSSASTKGPSVFPEAPSSKSTSGGTAALGCLVKDYFPEPVTVSWNSGALTSGVHTFPAVLQSSGLYSLGSVVTVPSSSLGTQTYICNVNHKPSNTKVDKKVEPKSCDKTHTCPPCPAPEAAGAPSVFLFPPKPKDTLMISRTPEVTCVVVDVSHEDPEVKFNWYVDGVEVHNAKTKPREEQYNSTYRVVSVLTVLHQDWLNGKEYKCKVSNKALPAPIEKTISKAKGQPREPQVYTLPPCREEMTKNQVSLSCAVKGFYPSDIAVEWESNGQPENNYKTTPPVLDSDGSFFLVSKLTVDKSRWQQGNVFSCSVMHEALHNHYTQKSLSLSPGK light 1: DIQMTQSPSSLSASVGDRVTITCKASESVDHFGWSLVHWYQQKPGKAPKLLIYRASNLESGVPSRFSGSGSGTDFTLTISSLQPEDFATYYCQQSNEDPWTFGGGTKVEIKRTVAAPSVFIFPPSDEQLKSGTASVSCLLNNFYPREAKVQWKVDNALQSGNSQESVTEQDSKDSTYSLDSTLTLSKADYEKHKVYACEVTHQGLSSPVTKSFNRGEC light 2: DIQMTQSPSSLSASVGDRVTITCKASQSVDEDGDSYMNWYQQKPGKAPKLLIYAASNLESGVPSRFSGSGSGTDFTLTISSLQPEDFATYYCQQSNEDPPTFGGGTKVEIKRTVAAPSVFIFPPSDEQLKSGTASVSCLLNNFYPREAKVQWKVDNALQSGNSQESVTEQDSKDSTYSLKSTLTLSKADYEKHKVYACEVTHQGLSSPVTKSFNRGEC chain 2: QMQLVESGGGVVQPGRSLRLSCAASGFTFRTYGMHWVRQAPGKGLEWVAVIWYDGSNKHYADSVKGRFTITRDNSKNTLNLQMNSLRAEDTAVYYCARAPQWELVHEAFDIWGQGTMVTVSSGQPKAAPSVTLFPPSSEELQANKATLVCLISDFYPGAVTVAWKADSSPVKAGVETTTPSKQSNNKYAASSYLSLTPEQWKSHRSYSCQVTHEGSTVEKTVAPTECS | ~0.6
2 | IL413TSLP-0001 (trispecific antibody, human IgG1, kappa, lambda) heavy: EVTLRESGPALVKPTQTLTLTCTFSGFSLSNFGEGLSWIRQPPGKGLEWLAHIYWDDDKRYNPSLKSRLTISKDTSRNQVVLTMTNMDPVDTATYYCARRETVFYWYFDVWGQGTTVTVSSASTKGPSVFPEAPSSKSTSGGTAALGCLVKDYFPEPVTVSWNSGALTSGVHTFPAVLQSSGLYSLGSVVTVPSSSLGTQTYICNVNHKPSNTKVDKKVEPKSCDKTHTCPPCPAPEAAGAPSVFLFPPKPKDTLMISRTPEVTCVVVDVSHEDPEVKFNWYVDGVEVHNAKTKPREEQYNSTYRVVSVLTVLHQDWLNGKEYKCKVSNKALPAPIEKTISKAKGQPREPQVYTLPPCREEMTKNQVSLSCAVKGFYPSDIAVEWESNGQPENNYKTTPPVLDSDGSFFLVSKLTVDKSRWQQGNVFSCSVMHEALHNHYTQKSLSLSPGK chain 1: QMQLVESGGGVVQPGRSLRLSCAASGFTFRTYGMHWVRQAPGKGLEWVAVIWYDGSNKHYADSVKGRFTITRDNSKNTLNLQMNSLRAEDTAVYYCARAPQWELVHEAFDIWGQGTMVTVSSGQPKAAPSVTLFPPSSEELQANKATLVCLISDFYPGAVTVAWKADSSPVKAGVETTTPSKQSNNKYAASSYLSLTPEQWKSHRSYSCQVTHEGSTVEKTVAPTECSGGGGSEVQLVESGGGLVQPGGSLRLSCAASGFTFSSYAMSWVRQAPGKGLEWVASISSGDTTYYPDSVKGRFTISRDNAKNSLYLQMNSLRAEDTAVYYCARNEGYYFGLTLWGQGTLVTVSSASTKGPSVFPKAPSSKSTSGGTAALGCLVKDYFPEPVTVSWNSGALTSGVHTFPAVLQSSGLYSLSSSVTVPSSSLGTQTYICNVNHKPSNTKVDKKVEPKSCDKTHTCPPCPAPEAAGAPSVFLFPPKPKDTLMISRTPEVTCVVVDVSHEDPEVKFNWYVDGVEVHNAKTKPREEQYNSTYRVVSVLTVLHQDWLNGKEYKCKVSNKALPAPIEKTISKAKGQPREPQVCTLPPSREEMTKNQVSLWCLVKGFYPSDIAVEWESNGQPENNYKTTPPVLDSDGSFFLYSKLTVDKSRWQQGNVFSCSVMHEALHNHYTQKSLSLSPGK light 1: DIQMTQSPSSLSASVGDRVTITCKASQSVDEDGDSYMNWYQQKPGKAPKLLIYAASNLESGVPSRFSGSGSGTDFTLTISSLQPEDFATYYCQQSNEDPPTFGGGTKVEIKRTVAAPSVFIFPPSDEQLKSGTASVSCLLNNFYPREAKVQWKVDNALQSGNSQESVTEQDSKDSTYSLKSTLTLSKADYEKHKVYACEVTHQGLSSPVTKSFNRGEC light 2: DIQMTQSPSSLSASVGDRVTITCKASESVDHFGWSLVHWYQQKPGKAPKLLIYRASNLESGVPSRFSGSGSGTDFTLTISSLQPEDFATYYCQQSNEDPWTFGGGTKVEIKRTVAAPSVFIFPPSDEQLKSGTASVSCLLNNFYPREAKVQWKVDNALQSGNSQESVTEQDSKDSTYSLDSTLTLSKADYEKHKVYACEVTHQGLSSPVTKSFNRGEC chain 2: SYVLTQPPSVSVAPGQTARITCGGNNLGSKSVHWYQQKPGQAPVLVVYDDSDRPSWIPERFSGSNSGNTATLTISRGEAGDEADYYCQVWDSSSDHVVFGGGTKLTVLASTKGPSVFPLAPSSKSTSGGTAALGCLVKDYFPEPVTVSWNSGALTSGVHTFPAVLQSSGLYSLSSVVTVPSSSLGTQTYICNVNHKPSNTKVDKKVEPKSC | ~0.6
3 | IL413TSLP-0002 (trispecific antibody, human IgG1, kappa, lambda) heavy: EVQLVESGGGLVQPGGSLRLSCAASGFTFSSYAMSWVRQAPGKGLEWVASISSGDTTYYPDSVKGRFTISRDNAKNSLYLQMNSLRAEDTAVYYCARNEGYYFGLTLWGQGTLVTVSSASTKGPSVFPKAPSSKSTSGGTAALGCLVKDYFPEPVTVSWNSGALTSGVHTFPAVLQSSGLYSLSSSVTVPSSSLGTQTYICNVNHKPSNTKVDKKVEPKSCDKTHTCPPCPAPEAAGAPSVFLFPPKPKDTLMISRTPEVTCVVVDVSHEDPEVKFNWYVDGVEVHNAKTKPREEQYNSTYRVVSVLTVLHQDWLNGKEYKCKVSNKALPAPIEKTISKAKGQPREPQVCTLPPSREEMTKNQVSLWCLVKGFYPSDIAVEWESNGQPENNYKTTPPVLDSDGSFFLYSKLTVDKSRWQQGNVFSCSVMHEALHNHYTQKSLSLSPGK chain 1: QMQLVESGGGVVQPGRSLRLSCAASGFTFRTYGMHWVRQAPGKGLEWVAVIWYDGSNKHYADSVKGRFTITRDNSKNTLNLQMNSLRAEDTAVYYCARAPQWELVHEAFDIWGQGTMVTVSSGQPKAAPSVTLFPPSSEELQANKATLVCLISDFYPGAVTVAWKADSSPVKAGVETTTPSKQSNNKYAASSYLSLTPEQWKSHRSYSCQVTHEGSTVEKTVAPTECSGGGGSEVTLRESGPALVKPTQTLTLTCTFSGFSLSNFGEGLSWIRQPPGKGLEWLAHIYWDDDKRYNPSLKSRLTISKDTSRNQVVLTMTNMDPVDTATYYCARRETVFYWYFDVWGQGTTVTVSSASTKGPSVFPEAPSSKSTSGGTAALGCLVKDYFPEPVTVSWNSGALTSGVHTFPAVLQSSGLYSLGSVVTVPSSSLGTQTYICNVNHKPSNTKVDKKVEPKSCDKTHTCPPCPAPEAAGAPSVFLFPPKPKDTLMISRTPEVTCVVVDVSHEDPEVKFNWYVDGVEVHNAKTKPREEQYNSTYRVVSVLTVLHQDWLNGKEYKCKVSNKALPAPIEKTISKAKGQPREPQVYTLPPCREEMTKNQVSLSCAVKGFYPSDIAVEWESNGQPENNYKTTPPVLDSDGSFFLVSKLTVDKSRWQQGNVFSCSVMHEALHNHYTQKSLSLSPGK light 1: DIQMTQSPSSLSASVGDRVTITCKASESVDHFGWSLVHWYQQKPGKAPKLLIYRASNLESGVPSRFSGSGSGTDFTLTISSLQPEDFATYYCQQSNEDPWTFGGGTKVEIKRTVAAPSVFIFPPSDEQLKSGTASVSCLLNNFYPREAKVQWKVDNALQSGNSQESVTEQDSKDSTYSLDSTLTLSKADYEKHKVYACEVTHQGLSSPVTKSFNRGEC light 2: DIQMTQSPSSLSASVGDRVTITCKASQSVDEDGDSYMNWYQQKPGKAPKLLIYAASNLESGVPSRFSGSGSGTDFTLTISSLQPEDFATYYCQQSNEDPPTFGGGTKVEIKRTVAAPSVFIFPPSDEQLKSGTASVSCLLNNFYPREAKVQWKVDNALQSGNSQESVTEQDSKDSTYSLKSTLTLSKADYEKHKVYACEVTHQGLSSPVTKSFNRGEC chain 2: SYVLTQPPSVSVAPGQTARITCGGNNLGSKSVHWYQQKPGQAPVLVVYDDSDRPSWIPERFSGSNSGNTATLTISRGEAGDEADYYCQVWDSSSDHVVFGGGTKLTVLASTKGPSVFPLAPSSKSTSGGTAALGCLVKDYFPEPVTVSWNSGALTSGVHTFPAVLQSSGLYSLSSVVTVPSSSLGTQTYICNVNHKPSNTKVDKKVEPKSC | ~0.5
